From paper PMC10539308, “Acetylation reprograms MITF target selectivity and residence time”

What was measured:
[1] = target: Ac-K206 MITF DBD (Homo sapiens) (UniProt O75030); experiment: fluorescence anisotropy; settings: 10 mM Tris/HCl pH 7.5, 300 mM NaCl, 0.01% Triton X-100, 0.1 mg/mL BSA, 25 C, 5 min, 1.33 nM dsDNA, quadratic fit, n=3
MITF DBD WT [2] = target: T1, MITF DBD WT (UniProt Q08874 287-403); experiment: fluorescence anisotropy; moderately reduced vs CLEAR-box; 10 mM Tris/HCl pH 7.5, 300 mM NaCl, 0.01% Triton X-100, 0.1 mg/mL BSA, 25 C, 5 min, 1.33 nM dsDNA; quadratic fit, n=3; settings: protein: recombinant; tags: His (Ni-NTA purified; pETM-11); chain copies: 2; label: 3' fluorescein on strand 1; blunt (annealed with complementary oligonucleotide)
T1 sequence (Q08874 287-403): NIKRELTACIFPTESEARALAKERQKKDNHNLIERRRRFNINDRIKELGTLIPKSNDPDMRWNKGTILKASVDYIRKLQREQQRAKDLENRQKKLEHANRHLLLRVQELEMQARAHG

MITF DBD WT [3] = target: T1, MITF DBD WT; experiment: fluorescence anisotropy; 10 mM Tris/HCl pH 7.5, 300 mM NaCl, 0.01% Triton X-100, 0.1 mg/mL BSA, 25 C, 5 min, 1.33 nM dsDNA; quadratic fit, n=3; settings: protein: recombinant; tags: His (Ni-NTA purified; pETM-11); chain copies: 2; label: 3' fluorescein on strand 1; blunt (annealed with complementary oligonucleotide)

Chain of Ac-K206 MITF DBD (Homo sapiens) (O75030 whole entry): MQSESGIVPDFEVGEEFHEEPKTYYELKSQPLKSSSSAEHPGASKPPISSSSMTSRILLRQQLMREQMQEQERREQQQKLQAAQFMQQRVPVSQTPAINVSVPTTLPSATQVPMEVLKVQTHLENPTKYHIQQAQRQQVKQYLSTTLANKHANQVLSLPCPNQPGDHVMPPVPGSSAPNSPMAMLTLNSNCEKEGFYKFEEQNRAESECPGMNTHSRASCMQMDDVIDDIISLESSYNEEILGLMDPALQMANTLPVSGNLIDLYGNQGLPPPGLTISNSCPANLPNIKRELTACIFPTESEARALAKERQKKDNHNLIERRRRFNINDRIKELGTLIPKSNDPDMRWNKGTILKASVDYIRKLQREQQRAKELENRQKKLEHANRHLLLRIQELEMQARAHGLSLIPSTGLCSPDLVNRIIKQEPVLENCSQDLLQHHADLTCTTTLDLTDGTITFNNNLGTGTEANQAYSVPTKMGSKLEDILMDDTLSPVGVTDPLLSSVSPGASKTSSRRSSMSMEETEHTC

## GAGATCACGTGATGAC (double strand) [CLEAR-box]
[1]
  binding signal (fold reduced vs WT on CLEAR-box): 3

## GAGATCATGTGATGAC (double strand) [TYR enhancer]
[1]; scale: fold further reduced vs Ac-K206 on CLEAR-box
  binding signal: 5

## GAGATCATGTGTTGAC (double strand) [M-box]
[1]
  binding signal (fold reduced vs Ac-K206 on CLEAR-box): 20

B1: TYR enhancer (dsDNA)
DNA 1: GAGATCATGTGATGAC
DNA 2: GTCATCACATGATCTC
MITF DBD WT [2]
  binding result: binds

B2: CLEAR-box (dsDNA)
DNA 1: GAGATCACGTGATGAC
DNA 2: GTCATCACGTGATCTC
MITF DBD WT [3]
  binding result: binds
